Test [1] addresses T1, VEGF (4 ng/mL, added in the in vitro angiogenesis assay) (UniProt P15692-4 27-191, limits assumed). Description: cell-based or functional assay.
Test [2] addresses T1, VEGF (4 ng/mL, added in the in vitro …). Description: cell-based or functional assay. This is another data set of the same source.

T1 sequence (P15692 other isoform, or with tags, fused parts or gaps limits assumed): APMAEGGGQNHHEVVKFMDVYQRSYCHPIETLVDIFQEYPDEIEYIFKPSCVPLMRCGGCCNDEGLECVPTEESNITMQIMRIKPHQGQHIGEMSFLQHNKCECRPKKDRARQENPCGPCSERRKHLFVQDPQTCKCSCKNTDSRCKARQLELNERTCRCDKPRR

B1: anti-VEGF vNAR V13 (other, not shown: small tags and cut ends)
chain: ASLDQTPRTATRETGESLSINCVLTDTSHILFGTKWLWNNPGSTDWESITIGGRYAESVNNQAKSFSLQIKDLTVEDSGTYYCKAQTIGRRKNLLPRPLVNGIAAMGYSSSDYDGAGTVLTVN
B1: in test [1], the “IC50, average value (in vitro angiogenesis, HUVEC/NHDF co-culture)” value came to 388 µg/mL; the “IC50, branching points (in vitro angiogenesis, HUVEC/NHDF co-culture)” value worked out at 340 µg/mL; the “IC50, length of the tubes (in vitro angiogenesis, HUVEC/NHDF co-culture)” value was determined as 436 µg/mL.

B2: anti-VEGF vNAR V32R (VNAR, not shown: small tags and cut ends)
chain: AASLDQTPRTATRETGESLTINCVFTDSSCGLCGTSWFRNNPGSTDWERITIGGRYVESVNKGAKSFSLQIKDLTVEDSVTYYCKAQGHRYFSKVCELRCPSYYYDGAGTVLTVN
As for B2, the “fold less antibody concentration than V13 for an inhibitory effect on angiogenesis” value in test [2] was at most 12 times less. In test [1], the “IC50, average value (in vitro angiogenesis, HUVEC/NHDF co-culture)” value was 23.4 µg/mL; the “IC50, branching points (in vitro angiogenesis, HUVEC/NHDF co-culture)” value was 19.3 µg/mL; the “IC50, length of the tubes (in vitro angiogenesis, HUVEC/NHDF co-culture)” value was found to be 27.6 µg/mL.

B3: anti-VEGF vNAR V19 (VNAR, not shown: small tags and cut ends)
VNAR: AQRVEQTPRTATKETGESLTINCVLRDASFELKDTGWYRTKLGSTNEQSISIGGRYVETVNKGSKSFSLRISDLRVEDSGTYKCQAFYSLPLGDYNYSLLFRGEKGAGTVLTVN
Regarding B3, in test [2], the “fold less antibody concentration than V13 for an inhibitory effect on angiogenesis” value was at most 12 times less. Moreover, in test [1], the “IC50, average value (in vitro angiogenesis, HUVEC/NHDF co-culture)” value was found to be 30.2 µg/mL; the “IC50, branching points (in vitro angiogenesis, HUVEC/NHDF co-culture)” value came to 24.7 µg/mL; the “IC50, length of the tubes (in vitro angiogenesis, HUVEC/NHDF co-culture)” value is 35.8 µg/mL.

The values are drawn from patent US20170137504A1 (TERACLON IDF S L, published 2017).
